Columns and labels:
Assay in all cases: affinity purification with mass spectrometry; anti-HA beads on lysates of Flp-In 293 cells expressing the 3HA-3FLAG-tagged bait (NUBP2, wildtype or mutant CIAO3); targeted proteomics assay (parallel reaction monitoring) of CIA components and substrates; CIAO3 purifications normalised to CIAO3; wildtype CIAO3 cells also treated with FAC or DFO for 8 h
Settings in all cases: partners not purified
3HA-3FLAG-CIAO3-C71S = target: T1, 3HA-3FLAG-CIAO3-C71S (human, UniProt Q9H6Q4 1-476, C71S)
T1 construct: human CIAO3 (NARFL), as m13, with C71S (N-terminal Fe-S cluster site); also called C71S mutant; source: Flp-In T-REx 293, stably expressed, induced with doxycycline, in lysate; not shown: 3xHA, N-terminal, kept; 3xFLAG, N-terminal, kept

[1] = target: T2, 3HA-3FLAG-CIAO3-C71S/C190S/C395S (human, UniProt Q9H6Q4 1-476, C71S | C190S | C395S)
T2 construct: human CIAO3 (NARFL), as m13, with C71S, C190S and C395S; also called C71S/C190S/C395S mutant; source: Flp-In T-REx 293, stably expressed, induced with doxycycline, in lysate; not shown: 3xHA, N-terminal, kept; 3xFLAG, N-terminal, kept

[2] = target: T3, 3HA-3FLAG-CIAO3, wildtype (human, UniProt Q9H6Q4 1-476)
T3 construct: human CIAO3 (NARFL) cDNA, amplified with primers from the start codon to the stop codon, in pcDNA5/FRT with an N-terminal tandem 3xHA-3xFLAG tag; also called 3HA-3FLAG-tagged CIAO3; wildtype CIAO3; source: Flp-In T-REx 293, stably expressed, induced with doxycycline, in lysate; not shown: 3xHA, N-terminal, kept; 3xFLAG, N-terminal, kept

[3] = target: T4, 3HA-3FLAG-CIAO3-C190S/C395S (human, UniProt Q9H6Q4 1-476, C190S | C395S)
T4 construct: human CIAO3 (NARFL), as m13, with C190S and C395S (C-terminal Fe-S cluster site); also called C190S/C395S mutant; source: Flp-In T-REx 293, stably expressed, induced with doxycycline, in lysate; not shown: 3xHA, N-terminal, kept; 3xFLAG, N-terminal, kept
T4 sequence (Q9H6Q4 whole entry C190S/C395S): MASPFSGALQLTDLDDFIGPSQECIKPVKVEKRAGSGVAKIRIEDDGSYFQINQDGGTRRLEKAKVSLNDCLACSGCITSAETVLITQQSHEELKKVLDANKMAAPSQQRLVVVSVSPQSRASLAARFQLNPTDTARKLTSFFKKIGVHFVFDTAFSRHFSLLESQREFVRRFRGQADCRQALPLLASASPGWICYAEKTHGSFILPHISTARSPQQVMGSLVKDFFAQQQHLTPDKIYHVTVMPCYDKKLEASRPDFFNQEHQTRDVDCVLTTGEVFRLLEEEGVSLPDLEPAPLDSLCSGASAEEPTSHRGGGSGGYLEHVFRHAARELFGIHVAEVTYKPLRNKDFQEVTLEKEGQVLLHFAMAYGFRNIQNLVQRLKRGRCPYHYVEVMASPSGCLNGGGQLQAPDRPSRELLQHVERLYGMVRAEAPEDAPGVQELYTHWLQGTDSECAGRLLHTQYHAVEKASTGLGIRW

T1 sequence (Q9H6Q4 whole entry C71S): as the sequence (Q9H6Q4 whole entry C190S/C395S) above, with C71S, S190C, S395C counted along it
T2 sequence (Q9H6Q4 whole entry C71S/C190S/C395S): as the sequence (Q9H6Q4 whole entry C190S/C395S) above, with C71S counted along it
T3 sequence (Q9H6Q4 whole entry): as the sequence (Q9H6Q4 whole entry C190S/C395S) above, with S190C, S395C counted along it

fold decrease against wildtype CIAO3 (3HA-3FLAG-CIAO3-C71S)	fold change against wildtype CIAO3 [1]	fold reduction in iron-deficient (DFO) against iron-replete (FAC) conditions [2]	fold reduction against wildtype CIAO3 (3HA-3FLAG-CIAO3-C71S)	fold reduction against wildtype CIAO3 [3]	fold reduction against wildtype CIAO3 [1]	Binder
~5 fold	2 fold					probable cytosolic iron-sulfur protein assembly protein CIAO1 (natural protein, CIAO1, component of the CIA targeting complex, endogenous; source: endogenous, Flp-In T-REx 293 lysate) not shown
		~4 fold	> 32 fold	> 32 fold	> 32 fold	nucleotide-binding protein 2 (NUBP2), endogenous (natural protein, human (endogenous in Flp-In T-REx 293), UniProt Q9Y5Y2 1-271, looked up, also called CFD1; source: endogenous, Flp-In T-REx 293 lysate) MEAAAEPGNLAGVRHIILVLSGKGGVGKSTISTELALALRHAGKKVGILDVDLCGPSIPRMLGAQGRAVHQCDRGWAPVFLDREQSISLMSVGFLLEKPDEAVVWRGPKKNALIKQFVSDVAWGELDYLVVDTPPGTSDEHMATIEALRPYQPLGALVVTTPQAVSVGDVRRELTFCRKTGLRVMGIVENMSGFTCPHCTECTSVFSRGGGEELAQLAGVPFLGSVPLDPALMRTLEEGHDFIQEFPGSPAFAALTSIAQKILDATPACLP

The remaining lines, values behind:

Binder	fold decrease against wildtype CIAO3 (3HA-3FLAG-CIAO3-C71S)	fold change against wildtype CIAO3 [1]	fold reduction in iron-deficient (DFO) against iron-replete (FAC) conditions [2]	fold reduction against wildtype CIAO3 (3HA-3FLAG-CIAO3-C71S)	fold reduction against wildtype CIAO3 [3]	fold reduction against wildtype CIAO3 [1]
cytosolic iron-sulfur assembly component 2B (CIAO2B) (natural protein, human (endogenous in Flp-In T-REx 293), UniProt Q9Y3D0 1-163, looked up, CIAO2B (cytosolic iron-sulfur assembly component 2B), component of the CIA targeting complex, endogenous; source: endogenous, Flp-In T-REx 293 lysate) MVGGGGVGGGLLENANPLIYQRSGERPVTAGEEDEQVPDSIDAREIFDLIRSINDPEHPLTLEELNVVEQVRVQVSDPESTVAVAFTPTIPHCSMATLIGLSIKVKLLRSLPQRFKMDVHITPGTHASEHAVNKQLADKERVAAALENTHLLEVVNQCLSARS	~5 fold	2 fold				
nucleotide-binding protein 1 (NUBP1) (natural protein, human (endogenous in Flp-In T-REx 293), UniProt P53384 1-320, looked up, also called NBP35; source: endogenous, Flp-In T-REx 293 lysate) MEEVPHDCPGADSAQAGRGASCQGCPNQRLCASGAGATPDTAIEEIKEKMKTVKHKILVLSGKGGVGKSTFSAHLAHGLAEDENTQIALLDIDICGPSIPKIMGLEGEQVHQSGSGWSPVYVEDNLGVMSVGFLLSSPDDAVIWRGPKKNGMIKQFLRDVDWGEVDYLIVDTPPGTSDEHLSVVRYLATAHIDGAVIITTPQEVSLQDVRKEINFCRKVKLPIIGVVENMSGFICPKCKKESQIFPPTTGGAELMCQDLEVPLLGRVPLDPLIGKNCDKGQSFFIDAPDSPATLAYRSIIQRIQEFCNLHQSKEENLISS			~4 fold	> 32 fold	> 32 fold	> 32 fold
MMS19 nucleotide excision repair protein homolog (MMS19) (natural protein, human (endogenous in Flp-In T-REx 293), UniProt Q96T76 1-1030, looked up, MMS19 nucleotide excision repair protein homolog, component of the CIA targeting complex, endogenous; source: endogenous, Flp-In T-REx 293 lysate) MAAAAAVEAAAPMGALWGLVHDFVVGQQEGPADQVAADVKSGNYTVLQVVEALGSSLENPEPRTRARAIQLLSQVLLHCHTLLLEKEVVHLILFYENRLKDHHLVIPSVLQGLKALSLCVALPPGLAVSVLKAIFQEVHVQSLPQVDRHTVYNIITNFMRTREEELKSLGADFTFGFIQVMDGEKDPRNLLVAFRIVHDLISRDYSLGPFVEELFEVTSCYFPIDFTPPPNDPHGIQREDLILSLRAVLASTPRFAEFLLPLLIEKVDSEVLSAKLDSLQTLNACCAVYGQKELKDFLPSLWASIRREVFQTASERVEAEGLAALHSLTACLSRSVLRADAEDLLDSFLSNILQDCRHHLCEPDMKLVWPSAKLLQAAAGASARACDSVTSNVLPLLLEQFHKHSQSSQRRTILEMLLGFLKLQQKWSYEDKDQRPLNGFKDQLCSLVFMALTDPSTQLQLVGIRTLTVLGAQPDLLSYEDLELAVGHLYRLSFLKEDSQSCRVAALEASGTLAALYPVAFSSHLVPKLAEELRVGESNLTNGDEPTQCSRHLCCLQALSAVSTHPSIVKETLPLLLQHLWQVNRGNMVAQSSDVIAVCQSLRQMAEKCQQDPESCWYFHQTAIPCLLALAVQASMPEKEPSVLRKVLLEDEVLAAMVSVIGTATTHLSPELAAQSVTHIVPLFLDGNVSFLPENSFPSRFQPFQDGSSGQRRLIALLMAFVCSLPRNVEIPQLNQLMRELLELSCCHSCPFSSTAAAKCFAGLLNKHPAGQQLDEFLQLAVDKVEAGLGSGPCRSQAFTLLLWVTKALVLRYHPLSSCLTARLMGLLSDPELGPAAADGFSLLMSDCTDVLTRAGHAEVRIMFRQRFFTDNVPALVQGFHAAPQDVKPNYLKGLSHVLNRLPKPVLLPELPTLLSLLLEALSCPDCVVQLSTLSCLQPLLLEAPQVMSLHVDTLVTKFLNLSSSPSMAVRIAALQCMHALTRLPTPVLLPYKPQVIRALAKPLDDKKRLVRKEAVSARGEWFLLGSPGS	~5 fold	2 fold				

Source: article PMC9243173, “Iron-regulated assembly of the cytosolic iron–sulfur cluster biogenesis machinery” (The Journal of Biological Chemistry, 2022)
